# Values of other authors in PMC11173308.
# Target: calmodulin (UniProt P0DP23)
substance,measurement,value
arrestin-2 (from UniProt P17870),Kd,7 µM
